Common to all, as to experiment: peptide or protein array; SH2/PTB proteins spotted on aldehyde slides, rhodamine peptide titrated in buffer B (20 mM HEPES, 100 mM KCl, 0.1% Tween-20, 5 mM DTT, pH 7.8), 1 h at room temperature; replicate assays
Common to all, as to conditions: both partners purified

The target of assay [1] is T1, RASA1 C-terminal SH2 domain (human).
T1 construct: RASA1, human; source: bacterial expression, purified
T1 sequence (P20936 whole entry, looked up): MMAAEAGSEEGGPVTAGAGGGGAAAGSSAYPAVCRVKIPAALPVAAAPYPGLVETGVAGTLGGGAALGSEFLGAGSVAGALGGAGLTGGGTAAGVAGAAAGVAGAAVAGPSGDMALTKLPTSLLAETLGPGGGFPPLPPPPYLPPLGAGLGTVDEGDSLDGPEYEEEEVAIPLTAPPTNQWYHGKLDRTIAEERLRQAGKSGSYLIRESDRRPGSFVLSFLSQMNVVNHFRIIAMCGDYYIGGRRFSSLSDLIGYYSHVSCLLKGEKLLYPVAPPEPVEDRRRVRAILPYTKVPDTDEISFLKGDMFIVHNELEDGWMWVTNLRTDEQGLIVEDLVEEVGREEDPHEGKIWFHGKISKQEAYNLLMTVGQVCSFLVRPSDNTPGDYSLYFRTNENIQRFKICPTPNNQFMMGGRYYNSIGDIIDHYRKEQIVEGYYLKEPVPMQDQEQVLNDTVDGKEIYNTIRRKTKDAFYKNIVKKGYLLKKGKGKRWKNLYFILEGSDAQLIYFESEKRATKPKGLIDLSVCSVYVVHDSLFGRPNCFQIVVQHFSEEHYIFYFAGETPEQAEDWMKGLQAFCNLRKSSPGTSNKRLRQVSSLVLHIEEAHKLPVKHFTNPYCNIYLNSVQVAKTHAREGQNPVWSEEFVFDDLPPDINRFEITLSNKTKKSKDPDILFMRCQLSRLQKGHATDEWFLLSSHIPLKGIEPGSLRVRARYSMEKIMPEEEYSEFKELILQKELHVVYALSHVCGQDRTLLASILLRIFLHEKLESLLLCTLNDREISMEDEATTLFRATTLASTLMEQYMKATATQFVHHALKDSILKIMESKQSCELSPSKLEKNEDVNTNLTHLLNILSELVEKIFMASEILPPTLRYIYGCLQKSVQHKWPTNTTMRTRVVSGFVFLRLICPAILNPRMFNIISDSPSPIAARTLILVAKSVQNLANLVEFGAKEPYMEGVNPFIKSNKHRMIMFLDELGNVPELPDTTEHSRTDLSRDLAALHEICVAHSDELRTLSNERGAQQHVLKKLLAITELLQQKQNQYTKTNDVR

The next assay has as its target T2, SHF SH2 domain (human, UniProt Q7M4L6 323-418).
T2 construct: SHF, human; source: bacterial expression, purified
T2 sequence (looked up): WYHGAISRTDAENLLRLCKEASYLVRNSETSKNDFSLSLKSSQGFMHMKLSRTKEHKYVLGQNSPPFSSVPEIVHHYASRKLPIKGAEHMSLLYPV

The target in the next assay is T3, SH2D1B SH2 domain (human, UniProt O14796 5-101).
T3 construct: SH2D1B, human; source: bacterial expression, purified
T3 sequence (looked up): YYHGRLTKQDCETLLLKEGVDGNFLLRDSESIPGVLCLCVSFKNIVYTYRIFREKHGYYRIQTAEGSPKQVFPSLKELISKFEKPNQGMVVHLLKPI

The target of assay [2] is T4, ZAP70 C-terminal SH2 domain (human, UniProt P43403 1-619).
T4 construct: ZAP70, human; source: bacterial expression, purified
T4 sequence (looked up): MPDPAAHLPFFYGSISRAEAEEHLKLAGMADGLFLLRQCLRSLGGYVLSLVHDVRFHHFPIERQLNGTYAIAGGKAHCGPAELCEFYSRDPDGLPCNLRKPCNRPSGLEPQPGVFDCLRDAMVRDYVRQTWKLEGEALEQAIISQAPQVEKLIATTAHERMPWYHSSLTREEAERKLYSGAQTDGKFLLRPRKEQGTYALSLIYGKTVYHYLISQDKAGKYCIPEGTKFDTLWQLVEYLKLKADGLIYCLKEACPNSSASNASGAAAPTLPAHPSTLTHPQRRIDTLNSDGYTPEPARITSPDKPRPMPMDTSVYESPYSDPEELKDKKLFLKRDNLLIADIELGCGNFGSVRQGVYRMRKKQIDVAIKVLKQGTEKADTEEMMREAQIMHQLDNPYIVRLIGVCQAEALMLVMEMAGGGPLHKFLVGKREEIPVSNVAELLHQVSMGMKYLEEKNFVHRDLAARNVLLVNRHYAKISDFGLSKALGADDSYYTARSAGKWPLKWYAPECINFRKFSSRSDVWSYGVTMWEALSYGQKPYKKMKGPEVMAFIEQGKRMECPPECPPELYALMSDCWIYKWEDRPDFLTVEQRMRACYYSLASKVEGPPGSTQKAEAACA

In another assay the target is T5, GRAP2 SH2 domain (human, UniProt O75791 58-149).
T5 construct: GRAP2, human; source: bacterial expression, purified
T5 sequence (looked up): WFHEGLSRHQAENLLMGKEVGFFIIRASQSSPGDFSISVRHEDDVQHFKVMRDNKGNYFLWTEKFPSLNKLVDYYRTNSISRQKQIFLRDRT

The target in assay [3] is T6, SYK N-terminal SH2 domain (human).
T6 construct: SYK, human; source: bacterial expression, purified

Where “and” joins values, the source holds several entries; their conditions need not be identical. Equal values may be shown once. Non-standard residues stand in square brackets, D forms with d. No end group written: not given here. pY = N[C@@H](Cc1ccc(OP(=O)(O)O)cc1)C(=O)O; Rhodamine = not defined here

B1: ErbB2 pY1127 phosphopeptide, rhodamine-labelled, for protein microarrays (peptide)
chain: Rhodamine-ETDG[pY]VAPLTCSD
modifications: reading uncertain
B1: the dissociation constant (Kd) in assay [1] was 1210 nM; with SHF SH2 domain it was 1020 nM; with SH2D1B SH2 domain, 2280 nM; in assay [2] it was 2200 nM and 3210 nM; in the assay with GRAP2 SH2 domain, 19.4 µM; in assay [3] it was 3210 nM and 2330 nM.
